Literature values, collected in paper PMC6764118.

Biological target: Lys199 (UniProt position 223, AKQRLKCASLQ)
Assay: chemical modification

## Human serum albumin (HSA) (Homo sapiens)
  pKa: ∼8
